Measurements published in US20210301005A1 (Genentech, published 2021).
Where two headings read alike, the source gives them in different places.

What was measured:
[1] = biological target: T1, human TGFβ1, mature receptor-binding domain (human, UniProt P01137 279-390); assay: cell-based or functional assay
[2] = biological target: T2, human TGFβ2, mature receptor-binding domain (human, UniProt P09858 303-414 (pig entry), The mature TGFβ2 is a disulfide-linked homodimer of this 112-residue chain. The 4A11 epitope spans both monomers (p-1207).); assay: cell-based or functional assay
T2 sequence: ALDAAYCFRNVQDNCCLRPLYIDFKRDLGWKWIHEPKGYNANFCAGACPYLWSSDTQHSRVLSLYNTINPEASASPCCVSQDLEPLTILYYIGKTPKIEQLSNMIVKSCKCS

[3] = biological target: T3, human TGFβ3, mature dimeric form (human, UniProt P10600 301-412); assay: cell-based or functional assay
T3 sequence: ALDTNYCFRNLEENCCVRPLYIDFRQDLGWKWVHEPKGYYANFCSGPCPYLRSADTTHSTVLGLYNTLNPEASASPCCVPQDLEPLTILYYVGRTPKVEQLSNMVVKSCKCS

[4] = biological target: T2, human TGFβ2, mature receptor-binding …; assay: BIAcore T200
Method: (§1) For binding affinity determinations of all humanized 2A10 antibodies, Surface Plasmon Resonance (SPR) measurement with a BIAcore™-T200 instrument was used. Briefly, series S CM5 biosensor chip with protein A was first applied to capture each humanized 2A10 variant to achieve approximately 100 response units (RU) on each flow cell, following by injection of 3-fold serial dilutions of human TGFβ1, TGFβ2 or TGFβ3 (0.02 nM to 5 nM) in HBS-EP buffer (0.01M HEPES pH 7.4, 0.15M NaCl, 3 mM EDTA and 0.05% v/v surfactant P20) at 25° C. with a flow rate of 50 μl/min for kinetics measurement. Association rates (ko.) and dissociation rates (koff) were calculated using a simple one-to-one Langmuir binding model (BIAcore T200 evaluation software version 2.0) to determine the equilibrium dissociation constant (KD), which was calculated as the ratio koff/kₒₙ.

[5] = biological target: T3, human TGFβ3, mature dimeric form; assay: BIAcore T200
Method: as §1

[6] = biological target: T1, human TGFβ1, mature receptor-binding …; assay: cell-based or functional assay; remark: listed apart in the source
[7] = biological target: T2, human TGFβ2, mature receptor-binding …; assay: cell-based or functional assay; remark: listed apart in the source
[8] = biological target: T3, human TGFβ3, mature dimeric form; assay: cell-based or functional assay; remark: listed apart in the source
[9] = biological target: T2, human TGFβ2, mature receptor-binding …; assay: cell-based or functional assay; remark: listed apart in the source

T1 sequence (P01137 279-390 limits assumed): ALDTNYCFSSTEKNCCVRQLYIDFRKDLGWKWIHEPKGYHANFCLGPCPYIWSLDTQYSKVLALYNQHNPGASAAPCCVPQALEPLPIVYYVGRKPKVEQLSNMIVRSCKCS

Binder	HEKBlue TGFβ blocking IC50 [1]	HEKBlue TGFβ blocking IC50 [2]	HEKBlue TGFβ blocking IC50 [3]	Kd [4]	Kd [5]	HEKBlue TGFβ blocking IC50 [6]	HEKBlue TGFβ blocking IC50 [7]	HEKBlue TGFβ blocking IC50 [8]	fold drop in blocking against h6F12.v1 [9]
h2A10.v2.1 (antibody, human IgG1, kappa, N297G) heavy: not shown light: DIQMTQSPSSLSASVGDRVTITCRASQSVSISRFNLMHWYQHKPGKQPKLLIYRASNLASGIPSRFSGSGSGTDFTLTISSLQPEDFATYYCQHSRESPWTFGGGTKVEIKRTVAAPSVFIFPPSDEQLKSGTASVVCLLNNFYPREAKVQWKVDNALQSGNSQESVTEQDSKDSTYSLSSTLTLSKADYEKHKVYACEVTHQGLSSPVTKSFNRGEC	> 200 nM	> 200 nM	0.01 nM	0.238 nM	0.0031 nM	–	–	–	–
h2A10.v2.2 (antibody, human IgG1, kappa, N297G, V domains shown) VH: EVQLLESGGGLVQPGGSLRLSCAASGFDFNSYGMSWVRQAPGKGLELVADIVSKTYNYTTYYSDSVKDRFTISRDDSKSTVYLQMNSLRAEDTAVYYCTVAPGGSFDYWGQGTLVTVSS VL: DIQLTQSPSSLSASVGDRVTITCRASQSVSISRFNLMHWYQQKPGKQPKLLIYRASNLASGIPSRFSGSGSGTDFTLTISSLQPEDFATYYCQHSRESPWTFGGGTKVEIKR	> 200 nM	> 200 nM	0.01 nM	0.124 nM	0.0012 nM	–	–	–	–
h2A10.v2.6 (antibody, human IgG1, kappa, N297G, V domains shown) VH: EVQLLESGGGLVQPGGSLRLSCAASGFDFNSYGMSWVRQAPGKGLELVSDIVSKTYNYTTYYSDSVKDRFTISRDDSKSTVYLQMNSLRAEDTAVYYCTVAPGGSFDYWGQGTLVTVSS VL: DIQLTQSPSSLSASVGDRVTITCRASQSVSISRFNLMHWYQHKPGKQPKLLIYRASNLASGIPSRFSGSGSGTDFTLTISSLQPEDFATYYCQHSRESPWTFGGGTKVEIKR	> 200 nM	> 200 nM	0.01 nM	0.249 nM	0.0015 nM	–	–	–	–
h2A10.v2.4 (antibody, human IgG1, kappa, N297G, V domains shown) VH: EVQLLESGGGLVQPGGSLRLSCAASGFDFNSYGMSWVRQAPGKGLELVADIVSKTYNYTTYYSDSVKDRFTISRDDSKSTVYLQMNSLRAEDTAVYYCTVAPGGSFDYWGQGTLVTVSS VL: DIQLTQSPSSLSASVGDRVTITCRASQSVSISRFNLMHWYQHKPGKQPKLLIYRASNLASGVPSRFSGSGSGTDFTLTISSLQPEDFATYYCQHSRESPWTFGGGTKVEIKR	> 200 nM	> 200 nM	0.01 nM	0.19 nM	0.0021 nM	–	–	–	–
h2A10.v2.3 (antibody, human IgG1, kappa, N297G, V domains shown) VH: EVQLLESGGGLVQPGGSLRLSCAASGFDFNSYGMSWVRQAPGKGLELVADIVSKTYNYTTYYSDSVKDRFTISRDDSKSTVYLQMNSLRAEDTAVYYCTVAPGGSFDYWGQGTLVTVSS VL: DIQLTQSPSSLSASVGDRVTITCRASQSVSISRFNLMHWYQHKPGKAPKLLIYRASNLASGIPSRFSGSGSGTDFTLTISSLQPEDFATYYCQHSRESPWTFGGGTKVEIKR	> 200 nM	> 200 nM	0.01 nM	0.242 nM	0.0015 nM	–	–	–	–
h6F12.v1.1 (antibody, human IgG1, kappa, N297G, V domains shown) VH: EVTLKESGPVLVKPTETLTLTCTVSGFSLTTYNVHWVRQPPGKALEWMGLIWNTGGTRYNSALKSRLTISKDTSKSQVVLTMTNMDPVDTATYYCARDPVPNKWHFDFWGPGTLVTVSS VL: DIQMTQSPSTLSASVGDRVTITCLASEDIYSNLAWYQQKPGKAPKLLIYDARSLQDGVPSRFSGSESGPEYTLTISSLQPDDFATYFCQQHHAYPFTFGQGTKVEIKR	–	–	–	–	–	> 200 nM	0.02 nM	> 200 nM	–
h6F12.v1.4 (antibody, human IgG1, kappa, N297G, V domains shown) VH: EVTLKESGPVLVKPTETLTLTCTVSGFSLTTYNVHWVRQPPGKALEWMGLIWNTGGTRYNSALKSRLTISKDTSKSQVVLTMTNMDPVDTATYYCARDPVPNKWHFDFWGPGTLVTVSS VL: DIQMTQSPSTLSASVGDRVTITCLASEDIYSNLAWYQQKPGKSPKLLIYDARSLQDGVPSRFSGSESGPEFTLTISSLQPDDFATYFCQQHHAYPFTFGQGTKVEIKR	–	–	–	–	–	> 200 nM	0.02 nM	> 200 nM	–
h6F12.v1.3 (antibody, human IgG1, kappa, N297G, V domains shown) VH: EVTLKESGPVLVKPTETLTLTCTVSGFSLTTYNVHWVRQPPGKALEWMGLIWNTGGTRYNSALKSRLTISKDTSKSQVVLTMTNMDPVDTATYYCARDPVPNKWHFDFWGPGTLVTVSS VL: DIQMTQSPSTLSASVGDRVTITCLASEDIYSNLAWYQQKPGKSPKLLIYDARSLQDGVPSRFSGSESGTEYTLTISSLQPDDFATYFCQQHHAYPFTFGQGTKVEIKR	–	–	–	–	–	> 200 nM	0.01 nM	> 200 nM	–
h6F12.v1.6 (antibody, human IgG1, kappa, N297G, V domains shown) VH: EVTLKESGPVLVKPTETLTLTCTVSGFSLTTYNVHWIRQPPGKALEWMGLIWNTGGTRYNSALKSRLTISKDTSKSQVVLTMTNMDPVDTATYYCARDPVPNKWHFDFWGPGTLVTVSS VL: DIQMTQSPSTLSASVGDRVTITCLASEDIYSNLAWYQQKPGKSPKLLIYDARSLQDGVPSRFSGSESGPEYTLTISSLQPDDFATYFCQQHHAYPFTFGQGTKVEIKR	–	–	–	–	–	> 200 nM	0.11 nM	> 200 nM	5 to 8 fold
h6F12.v1.2 (antibody, human IgG1, kappa, N297G, V domains shown) VH: EVTLKESGPVLVKPTETLTLTCTVSGFSLTTYNVHWVRQPPGKALEWMGLIWNTGGTRYNSALKSRLTISKDTSKSQVVLTMTNMDPVDTATYYCARDPVPNKWHFDFWGPGTLVTVSS VL: DIQMTQSPSTLSASVGDRVTITCLASEDIYSNLAWYQQKPGKSPKLLIYDARSLQDGVPSRFSGSGSGPEYTLTISSLQPDDFATYFCQQHHAYPFTFGQGTKVEIKR	–	–	–	–	–	> 200 nM	0.02 nM	> 200 nM	–
h6F12.v1.7 (antibody, human IgG1, kappa, N297G, V domains shown) VH: EVTLKESGPVLVKPTETLTLTCTVSGFSLTTYNVHWVRQPPGKALEWLGLIWNTGGTRYNSALKSRLTISKDTSKSQVVLTMTNMDPVDTATYYCARDPVPNKWHFDFWGPGTLVTVSS VL: DIQMTQSPSTLSASVGDRVTITCLASEDIYSNLAWYQQKPGKSPKLLIYDARSLQDGVPSRFSGSESGPEYTLTISSLQPDDFATYFCQQHHAYPFTFGQGTKVEIKR	–	–	–	–	–	> 200 nM	0.03 nM	> 200 nM	–
h6F12.v1.5 (antibody, human IgG1, kappa, N297G, V domains shown) VH: EVTLKESGPVLVKPTETLTLTCTVSGFSLTTYNVHWVRQPPGKALEWMGLIWNTGGTRYNSALKSRLTISKDTSKSQVVLTMTNMDPVDTATYYCARDPVPNKWHFDFWGPGTLVTVSS VL: DIQMTQSPSTLSASVGDRVTITCLASEDIYSNLAWYQQKPGKSPKLLIYDARSLQDGVPSRFSGSESGPEYTLTISSLQPDDFATYYCQQHHAYPFTFGQGTKVEIKR	–	–	–	–	–	> 200 nM	0.04 nM	> 200 nM	2 fold
h6F12.v1.9 (antibody, V domains shown) VH: EVTLKESGPVLVKPTETLTLTCTVSGFSLTTYNVHWVRQPPGKALEWMGLIWNTGGTRYNSALKSRLTISKDTSKSQVVLTMTNMDPVDTATYYCARDPVPNKWHFDFWGRGTLVTVSS VL: DIQMTQSPSTLSASVGDRVTITCLASEDIYSNLAWYQQKPGKSPKLLIYDARSLQDGVPSRFSGSESGPEYTLTISSLQPDDFATYFCQQHHAYPFTFGQGTKVEIK	–	–	–	–	–	> 200 nM	0.16 nM	> 200 nM	5 to 8 fold
h6F12.v1.8 (antibody, human IgG1, kappa, N297G, V domains shown) VH: EVTLKESGPVLVKPTETLTLTCTVSGFSLTTYNVHWVRQPPGKALEWMALIWNTGGTRYNSALKSRLTISKDTSKSQVVLTMTNMDPVDTATYYCARDPVPNKWHFDFWGPGTLVTVSS VL: DIQMTQSPSTLSASVGDRVTITCLASEDIYSNLAWYQQKPGKSPKLLIYDARSLQDGVPSRFSGSESGPEYTLTISSLQPDDFATYFCQQHHAYPFTFGQGTKVEIKR	–	–	–	–	–	> 200 nM	0.08 nM	> 200 nM	4 fold
